{"source": "IntAct's records for PubMed 19850925", "parents": {"B1": {"name": "Complement factor H (Homo sapiens), P08603 (parent)", "chain": "MRLLAKIICLMLWAICVAEDCNELPPRRNTEILTGSWSDQTYPEGTQAIYKCRPGYRSLGNVIMVCRKGEWVALNPLRKCQKRPCGHPGDTPFGTFTLTGGNVFEYGVKAVYTCNEGYQLLGEINYRECDTDGWTNDIPICEVVKCLPVTAPENGKIVSSAMEPDREYHFGQAVRFVCNSGYKIEGDEEMHCSDDGFWSKEKPKCVEISCKSPDVINGSPISQKIIYKENERFQYKCNMGYEYSERGDAVCTESGWRPLPSCEEKSCDNPYIPNGDYSPLRIKHRTGDEITYQCRNGFYPATRGNTAKCTSTGWIPAPRCTLKPCDYPDIKHGGLYHENMRRPYFPVAVGKYYSYYCDEHFETPSGSYWDHIHCTQDGWSPAVPCLRKCYFPYLENGYNQNYGRKFVQGKSIDVACHPGYALPKAQTTVTCMENGWSPTPRCIRVKTCSKSSIDIENGFISESQYTYALKEKAKYQCKLGYVTADGETSGSITCGKDGWSAQPTCIKSCDIPVFMNARTKNDFTWFKLNDTLDYECHDGYESNTGSTTGSIVCGYNGWSDLPICYERECELPKIDVHLVPDRKKDQYKVGEVLKFSCKPGFTIVGPNSVQCYHFGLSPDLPICKEQVQSCGPPPELLNGNVKEKTKEEYGHSEVVEYYCNPRFLMKGPNKIQCVDGEWTTLPVCIVEESTCGDIPELEHGWAQLSSPPYYYGDSVEFNCSESFTMIGHRSITCIHGVWTQLPQCVAIDKLKKCKSSNLIILEEHLKNKKEFDHNSNIRYRCRGKEGWIHTVCINGRWDPEVNCSMAQIQLCPPPPQIPNSHNMTTTLNYRDGEKVSVLCQENYLIQEGEEITCKDGRWQSIPLCVEKIPCSQPPQIEHGTINSSRSSQESYAHGTKLSYTCEGGFRISEENETTCYMGKWSSPPQCEGLPCKSPPEISHGVVAHMSDSYQYGEEVTYKCFEGFGIDGPAIAKCLGEKWSHPPSCIKTDCLSLPSFENAIPMGEKKDVYKAGEQVTYTCATYYKMDGASNVTCINSRWTGRPTCRDTSCVNPPTVQNAYIVSRQMSKYPSGERVRYQCRSPYEMFGDEEVMCLNGNWTEPPQCKDSTGKCGPPPPIDNGDITSFPLSVYAPASSVEYQCQNLYQLEGNKRITCRNGQWSEPPKCLHPCVISREIMENYNIALRWTAKQKLYSRTGESVEFVCKRGYRLSSRSHTLRTTCWDGKLEYPTCAKR", "partner": "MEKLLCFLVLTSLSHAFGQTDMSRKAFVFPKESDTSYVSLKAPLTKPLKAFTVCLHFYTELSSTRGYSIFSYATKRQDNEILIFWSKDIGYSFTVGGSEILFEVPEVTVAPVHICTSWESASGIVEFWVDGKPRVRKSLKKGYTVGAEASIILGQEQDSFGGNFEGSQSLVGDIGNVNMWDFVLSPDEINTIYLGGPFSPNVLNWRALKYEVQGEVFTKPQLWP"}}, "data": [{"variants_of": "B1", "conditions": "with crp_human CRP", "values": [{"variant": "Y402H", "effect of a mutation on the interaction": "decreasing interaction strength"}]}]}
